In paper PMC4366199, “Arfaptin-1 Negatively Regulates Arl1-Mediated Retrograde Transport” (PLoS ONE, 2015):

B1: arfaptin-1b (Arf-interacting protein 1b, long isoform), endogenous (natural protein, human (endogenous in HeLa), UniProt P53367 1-373, looked up)
chain: MAQESPKNSAAEIPVTSNGEVDDSREHSFNRDLKHSLPSGLGLSETQITSHGFDNTKEGVIEAGAFQGSPAPPLPSVMSPSRVAASRLAQQGSDLIVPAGGQRTQTKSGPVILADEIKNPAMEKLELVRKWSLNTYKCTRQIISEKLGRGSRTVDLELEAQIDILRDNKKKYENILKLAQTLSTQLFQMVHTQRQLGDAFADLSLKSLELHEEFGYNADTQKLLAKNGETLLGAINFFIASVNTLVNKTIEDTLMTVKQYESARIEYDAYRTDLEELNLGPRDANTLPKIEQSQHLFQAHKEKYDKMRNDVSVKLKFLEENKVKVLHNQLVLFHNAIAAYFAGNQKQLEQTLKQFHIKLKTPGVDAPSWLEEQ
notes: arfaptin-1b, long isoform of arfaptin-1 with an insertion (residues 69-100) absent from arfaptin-1a; source: endogenous, HeLa lysate
B2: arfaptin-1a (Arf-interacting protein 1, short isoform), endogenous (natural protein, human (endogenous in HeLa), UniProt P53367-2 1-341, looked up)
chain: MAQESPKNSAAEIPVTSNGEVDDSREHSFNRDLKHSLPSGLGLSETQITSHGFDNTKEGVIEAGAFQGGQRTQTKSGPVILADEIKNPAMEKLELVRKWSLNTYKCTRQIISEKLGRGSRTVDLELEAQIDILRDNKKKYENILKLAQTLSTQLFQMVHTQRQLGDAFADLSLKSLELHEEFGYNADTQKLLAKNGETLLGAINFFIASVNTLVNKTIEDTLMTVKQYESARIEYDAYRTDLEELNLGPRDANTLPKIEQSQHLFQAHKEKYDKMRNDVSVKLKFLEENKVKVLHNQLVLFHNAIAAYFAGNQKQLEQTLKQFHIKLKTPGVDAPSWLEEQ
notes: arfaptin-1a, short isoform of arfaptin-1; lacks the insertion (residues 69-100) of arfaptin-1b; also called arfaptin-1a (short form); source: endogenous, HeLa lysate

Target: T1, GST-Arl1QL (Arf-like protein 1, Gln71 to Leu, putative active GTP-bound form) (human, UniProt P40616 1-181, Gln71 to Leu (Arl1QL))
T1 construct: Arf-like protein 1 (Arl1), human; fragment encoding Arl1QL subcloned into pGEX4T via EcoRI; Loaded with GTPγS on the resin; also called active form of Arl1; source: E. coli BL21, immobilized on glutathione-sepharose resin, exchanged for GTPγS
T1 sequence (looked up): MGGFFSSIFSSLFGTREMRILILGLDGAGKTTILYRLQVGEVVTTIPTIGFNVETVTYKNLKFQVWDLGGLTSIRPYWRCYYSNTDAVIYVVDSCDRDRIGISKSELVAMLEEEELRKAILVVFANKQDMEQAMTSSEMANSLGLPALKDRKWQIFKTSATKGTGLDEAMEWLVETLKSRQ
Assay: pull-down; GST fusion proteins (5 μg) immobilized on glutathione-sepharose, incubated with GTPγS (QL) or GDP (TN); HeLa lysates (2.5 mg), endogenous proteins; 12.5% SDS-PAGE and western blotting
Details: one partner purified

Binder	fold change of the level bound, against Arf1QL
B1	1.84 fold
B2	1.84 fold
